The values that follow are results of earlier work, collected in patent publication US20110218118A1, “PEPTIDE MODULATORS OF CELLULAR PHENOTYPE AND BI-NUCLEIC ACID FRAGMENT LIBRARY” (PHYLOGICA LIMITED, priority 2004, published 2011).

The data set has as its target T1, human cyclin E (Homo sapiens, UniProt P24864).
T1 construct: expressed in transfected cells; host or cells: Saccharomyces cerevisiae strain AZ-1 (huCDK2::his2), mated with PRT 51
The settings on record: yeast over-expressing human cyclin E and co-expressing human Cdk2.

T1 sequence (P24864 16-410): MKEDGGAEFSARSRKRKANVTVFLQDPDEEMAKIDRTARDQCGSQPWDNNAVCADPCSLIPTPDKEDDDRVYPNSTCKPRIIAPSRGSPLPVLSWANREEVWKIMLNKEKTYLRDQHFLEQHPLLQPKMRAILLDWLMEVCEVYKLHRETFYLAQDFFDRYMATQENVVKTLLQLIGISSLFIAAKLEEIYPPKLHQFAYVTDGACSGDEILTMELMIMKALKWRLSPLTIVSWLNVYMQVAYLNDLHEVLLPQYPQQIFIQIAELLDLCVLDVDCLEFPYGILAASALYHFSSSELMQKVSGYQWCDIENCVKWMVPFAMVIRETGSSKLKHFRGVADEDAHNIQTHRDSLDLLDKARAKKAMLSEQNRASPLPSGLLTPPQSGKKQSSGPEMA

Consider “p21^CIP1: positive control protein, cDNA (SEQ ID NO: 60) cloned as in-frame fusion into the pMF4-5 plasmid”, for which the “rescue of the cyclin E lethal phenotype in yeast” value is “rescue the lethal phenotype in yeast”.
